Target: 70 kDa N-terminal fragment of fibronectin

B1: Recombinant human thioredoxin produced in E. coli (protein)
chain: MVKQIESKTAFQEALDAAGDKLVVVDFSATWCGPCKMIKPFFHSLSEKYSNVIFLEVDVDDCQDVASECEVKCMPTFQFFKKGQKVGEFSGANKEKLEATINELV
thioredoxin-mediated reduction of the fibronectin fragment (free thiols labelled with MPB, SDS-PAGE, streptavidin peroxidase blot): thioredoxin reduced one or more protein disulfide bonds in the 70 kDa N-terminal fragment of fibronectin
